Assay results as given in PMC12502629, “The NagY antiterminator in Enterococcus faecalis: a novel regulatory mechanism and its impact on cell metabolism” (Microbiology Spectrum, 2025).

Assays:
[1] = test system: RNase III (RNase III*);NagY (Enterococcus faecalis V19?;Enterococcus faecalis V19?); assay: spectral shift (Monolith X); conditions: RNase III* pre-incubated with NagY (8.5e-6 M), then RNA titrated; 1 mM MgCl2; ES-T buffer: 10 mM Tris pH 8.0, 40 mM NaCl, 10 mM KCl, 1 mM MgCl2, 0.05% Tween-80; room temperature (5 min pre-incubation); RNase III* stock 5e-8 M …
[2] = target: T1, NagY antiterminator (Enterococcus faecalis, UniProt Q834W3 1-277); assay: other fluorescence titration; spectral shift (670 nm/650 nm) on Monolith X; RNase III* Cys-labeled at 50·10^-9 M, NagY serially diluted 5.2·10^-10 to 1.7·10^-5 M; ES-T buffer pH 8.0 (10 mM Tris, 40 mM NaCl, 10 mM KCl, 1 mM MgCl2, 0.05% Tween-80); independent triplicates; conditions: both partners purified
T1 construct: NagY transcriptional antiterminator of Enterococcus faecalis, encoded by nagY (ef1515); source: E. coli M15 pRep4 pQE70-nagY, purified (HisTrap HP)
T1 sequence (looked up): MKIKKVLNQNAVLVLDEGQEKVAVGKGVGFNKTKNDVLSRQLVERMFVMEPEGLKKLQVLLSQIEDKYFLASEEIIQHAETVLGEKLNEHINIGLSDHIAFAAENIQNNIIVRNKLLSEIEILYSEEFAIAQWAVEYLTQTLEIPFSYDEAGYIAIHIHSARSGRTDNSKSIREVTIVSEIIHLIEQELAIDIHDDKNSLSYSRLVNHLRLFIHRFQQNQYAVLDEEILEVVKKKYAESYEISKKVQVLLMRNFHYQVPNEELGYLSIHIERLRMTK

For 5' nagY RNA, the Kd [1] was 580 nM.

B1: RNase III (fluorescence-labeled, RNase III*) (enzyme, Enterococcus faecalis, UniProt Q82ZG1 1-230, looked up)
chain: MDNQLTTELKERYGIVFHDVNLLEQAFTHSSYVNEHRYLKLSDNERLEFLGDAVLELIVSQYLYLKFPELPEGKLTKMRAAIVREDSLAKFAKECHFDNYILLGKGEEASGGRTRASLLCDLFEAFLGALYLDQKVGAAKKFIEDVIFPKIDAGAFSHEMDHKTQLQEVLQRKGDVSIEYRLIKEEGPAHDRTFFTEVYMNGELIGLGQGKSKKLAEQDAAERALKSIPQ
modifications: Cys-labeled with Red-Maleimide 2nd Generation dye (degree of labeling 0.1 fluorescent tags per protein unit)
notes: RNase III of Enterococcus faecalis, a 26.2 kDa protein encoded by the rnc gene (ef3097); also called ribonuclease RNase III; rnc gene product; source: E. coli M15 pRep4 pQE30-rnc, purified (HisTrap HP)
B1 showed a Kd [2] of 2500 nM.
